{
  "source": "patent US20250264433A1",
  "about": "(STATE OF ISRAEL MINISTRY OF AGRICULTURE AND RURAL …, published 2025)",
  "binders": {"B1": {"name": "mAb-EspB-B7 (antibody, V domains shown)", "VH": "EVQLLESGGGLVQPGGSLRLSCAASGFTFSHYAMNWVRQAPGKGLEWVSAINSNGDSTYYPDTVKDRFTISRDNSKNTLYLQMNSLRAEDTAVYYCARDRRAGYFDYWGQGTLVTVSS", "VL": "DIVLTQPPSASGTPGQRVTISCSGSRDNIGKNYVSWYQQLPGTAPKLLIYRNNQRPSGVPDRFSGSKSGTSASLAISGLRSEDEADYYCSAWDTSLNAYVFGPGTQLTVL", "notes": "also called mAb-B7; anti-EspB antibody"}},
  "key": {"[1]": {"biological_target": "T1, EspB of enterohemorrhagic E. coli (EHEC)", "T1 construct": "also called EHEC EspB", "test": "western blot of culture supernatants with mAb-EspB-B7"}, "[2]": {"biological_target": "T2, Recombinant His-tagged EspB (EspB-His), EPEC O127:H6 strain E2348/69", "T2 construct": "also called purified EspB; full-length EspB", "test": "ELISA, EspB-coated plate; mAb incubated in 3% milk in PBS"}, "[3]": {"biological_target": "T2, Recombinant His-tagged EspB (EspB-His), …", "test": "ELISA, EspB-coated plate, serially diluted mAb, anti-human IgG-HRP"}, "[4]": {"biological_target": "T3, EspB of Citrobacter rodentium DBS100 (Citrobacter rodentium)", "T3 construct": "also called C. rodentium EspB", "test": "western blot of culture supernatants, mAb-EspB-B7 as primary antibody"}, "[5]": {"biological_target": "T4, EspB homolog of Salmonella enterica serovar Typhimurium (Salmonella enterica serovar Typhimurium, UniProt D0ZV21 1-409)", "T4 construct": "also called Salmonella EspB homolog", "T4 sequence": "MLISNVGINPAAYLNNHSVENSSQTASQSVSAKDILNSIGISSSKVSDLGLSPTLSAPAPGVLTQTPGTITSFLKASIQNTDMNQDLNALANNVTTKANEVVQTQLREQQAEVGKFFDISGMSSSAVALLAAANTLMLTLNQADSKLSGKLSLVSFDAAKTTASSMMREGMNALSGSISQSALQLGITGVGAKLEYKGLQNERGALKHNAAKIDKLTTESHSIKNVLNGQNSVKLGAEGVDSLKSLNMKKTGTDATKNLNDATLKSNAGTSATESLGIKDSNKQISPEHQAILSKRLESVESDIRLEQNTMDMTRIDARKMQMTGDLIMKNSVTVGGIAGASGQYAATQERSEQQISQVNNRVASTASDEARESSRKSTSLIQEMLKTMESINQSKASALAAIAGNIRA", "test": "western blot of culture supernatants, mAb-EspB-B7 as primary antibody"}, "[6]": {"biological_target": "T2, Recombinant His-tagged EspB (EspB-His), …", "test": "ELISA, EspB-coated plate; mAb incubated with NaCl, curve labelled 274mM"}, "[7]": {"biological_target": "T2, Recombinant His-tagged EspB (EspB-His), …", "test": "ELISA, EspB-coated plate; mAb incubated with NaCl, curve labelled 411mM"}, "[8]": {"biological_target": "T2, Recombinant His-tagged EspB (EspB-His), …", "test": "ELISA, EspB-coated plate; mAb incubated with NaCl, curve labelled 45.6mM"}, "[9]": {"biological_target": "T2, Recombinant His-tagged EspB (EspB-His), …", "test": "ELISA, EspB-coated plate; mAb incubated in goat serum with 1% human serum"}, "[10]": {"biological_target": "T2, Recombinant His-tagged EspB (EspB-His), …", "test": "ELISA, EspB-coated plate; mAb incubated in horse serum with 1% human serum"}, "[11]": {"biological_target": "T2, Recombinant His-tagged EspB (EspB-His), …", "test": "SPR (Biacore, EspB amine-coupled to a CM5 chip, mAb injected at 10-90 nM, steady-state fit); ELISA was run as well"}},
  "data": [
    {"binder": "B1", "values": [
      {"measurement": "binding result", "setting": "[1]", "result": "binds"},
      {"measurement": "EC50 (read off the curve)", "setting": "[2]", "result": "~5", "unit": "nM"},
      {"measurement": "EC50 (read off the curve)", "setting": "[3]", "result": "~8", "unit": "nM"},
      {"measurement": "binding result", "setting": "[4]", "result": "binds"},
      {"measurement": "binding result", "setting": "[5]", "result": "no binding"},
      {"measurement": "EC50 (read off the curve)", "setting": "[6]", "result": "~7", "unit": "nM"},
      {"measurement": "EC50 (read off the curve)", "setting": "[7]", "result": "~10", "unit": "nM"},
      {"measurement": "EC50 (read off the curve)", "setting": "[8]", "result": "~3", "unit": "nM"},
      {"measurement": "EC50 (read off the curve)", "setting": "[9]", "result": "~2", "unit": "nM"},
      {"measurement": "EC50 (read off the curve)", "setting": "[10]", "result": "~3", "unit": "nM"},
      {"measurement": "Kd", "setting": "[11]", "result": 17.4, "unit": "nM"}
    ]}
  ]
}
